Reference: article PMC4127255

Experiments:
[1] = target: acetylcholine-binding protein from Aplysia californica (Ac-AChBP) (Aplysia californica); test: non-reduced SDS-PAGE
[2] = target: acetylcholine-binding protein from Aplysia californica (Ac-AChBP) (Aplysia californica); test: SEC; […]; 50 mM NaCl, 50 mM Tris pH 8.0, 0.5 mL/min, […]

stoichiometry N [1]: 5 | stoichiometry N [2]: 5
Substance: acetylcholine-binding protein from Aplysia californica (Ac-AChBP) (natural protein)
